Earlier results on 1 substance are cited in publication PMC3491057, “Proliferating Cell Nuclear Antigen (PCNA) Interactions in Solution Studied by NMR” (PLoS ONE, 2012).

Data set [1] has as its target p21 (p2120) 141-160 (Homo sapiens) (UniProt P38936).
Data set [2] deals with p21 (p2122) 139-160 (Homo sapiens) (UniProt P38936).
Data set [3] addresses p21 87-164 (Homo sapiens) (UniProt P38936).
In the next data set the target is Fen-1 (Homo sapiens) (UniProt P39748). The experiment in a line: SPR. (In general: SPR reads the build-up and loss of mass on a sensor chip optically.)
Chain of Fen-1 (Homo sapiens) (P39748 whole entry): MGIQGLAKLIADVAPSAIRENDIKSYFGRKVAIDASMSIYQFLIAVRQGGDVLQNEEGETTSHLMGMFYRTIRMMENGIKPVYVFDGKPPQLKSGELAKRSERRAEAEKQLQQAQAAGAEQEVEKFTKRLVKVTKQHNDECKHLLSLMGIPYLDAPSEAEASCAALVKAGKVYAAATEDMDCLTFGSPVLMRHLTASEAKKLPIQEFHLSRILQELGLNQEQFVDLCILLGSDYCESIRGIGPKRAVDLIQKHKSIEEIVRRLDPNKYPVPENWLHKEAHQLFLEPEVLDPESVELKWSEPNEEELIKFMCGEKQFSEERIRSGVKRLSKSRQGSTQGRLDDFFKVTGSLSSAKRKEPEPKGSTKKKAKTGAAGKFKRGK

Chain of PCNA (P12004 whole entry): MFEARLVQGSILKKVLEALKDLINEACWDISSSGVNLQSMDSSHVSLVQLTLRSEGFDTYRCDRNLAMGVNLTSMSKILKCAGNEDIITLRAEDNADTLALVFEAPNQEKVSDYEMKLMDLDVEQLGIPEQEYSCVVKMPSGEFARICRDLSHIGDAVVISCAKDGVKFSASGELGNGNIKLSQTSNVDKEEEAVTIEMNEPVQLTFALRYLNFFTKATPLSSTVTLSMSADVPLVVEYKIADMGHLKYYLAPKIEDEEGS
Chain of p21 (p2120) 141-160 (Homo sapiens) (P38936 141-160): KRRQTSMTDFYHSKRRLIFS
Chain of p21 (p2122) 139-160 (Homo sapiens) (P38936 139-160): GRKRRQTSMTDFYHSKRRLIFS
Chain of p21 87-164 (Homo sapiens) (P38936 87-164): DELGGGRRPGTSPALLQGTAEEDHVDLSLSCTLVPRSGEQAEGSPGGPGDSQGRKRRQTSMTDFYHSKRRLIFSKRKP

PCNA (from UniProt P12004): the Kd in data set [1] was 0.088 µM; in data set [2] it was 0.083 µM; in data set [3], 0.015 µM; with Fen-1 (Homo sapiens), 0.06 µM.

A word on the Kd: it is the concentration at which binding is half-saturated.
